In article PMC11480844:

B1: H2-Kb / B10 (parent)
chain 1: GQQVQQSPASLVLQEGENAELQCNFSSTATRLQWFYQRPGGSLVSLLSNPSGTKHTGRLTSTTVTKERRGSLHISSSQITDSGTYLCAPGGSNAKLTFGKGTKLSVKS
chain 2: DPKIIQKPKYLVAVTGSEKILICEQYLGHNAMYWYRQSAKKPLEFMFSYSYQKLMDNQTASSRFQPQSSKKNHLDLQITALKPDDSATYFCASSLRGGNNQAPLFGEGTRLSVL
chain 3: not shown
chain 4: IQKTPQIQVYSRHPPENGKPNILNCYVTQFHPPHIEIQMLKNGKKIPKVEMSDMSFSKDWSFYILAHTEFTPTETDTYACRVKHDSMAEPKTVYWDRDM
chain 5: SIINFEKL
B2: H2-Kb / B2 (parent)
chain 1: GEQVEQRPPHLSVREGDSAVIICTYTDPNSYYFFWYKQEPGAGLQLLMKVFSSTEINEGQGFTVLLNKKDKQLSLNLTAAHPGDSAVYFCAVSQMSNYNVLYFGSGTKLTVEP
chain 2: EAAVTQSPRNKVAVTGGKVTLSCNQTNNHNNMYWYRQDTGHGLRLIHYSYGAGSTEKGDIPDGYKASRPSQENFSLILELATPSQTSVYFCASGTGGSGQLYFGEGSKLTVL
chain 3: not shown
chain 4: B1 chain 4
chain 5: SIINFEKL

Variants of: B1
Test: % of reporter cells activated (NFAT-GFP), raw
Settings: with B10; scale: % of reporter cells activated
Also: test concentration or dose not given here.

Ratio to parent: each site, then its substitutions
chain 5 N4: K 1.32 | E 1.19 | R 1.37 | M 0.932 | I 1.8 | H 1.88 | F 1.51 | T 1.73 | L 1.05 | D 2.53 | Q 1.19 | S 1.01 | Y 2.14 | P 1.81 | V 1.85 | C 2.85 | G 1.28 | A 1.86 | W 1.66
chain 5 S1: M 1.64 | T 1.1 | R 0.627 | C 1.07 | L 1.32 | V 1.15 | W 1.07 | N 1.71 | Y 0.966 | H 1.08 | I 1.1 | G 0.831 | E 0.864 | D 0.924 | Q 0.831 | F 0.678 | K 1.53 | P 0.849 | A 0.498
chain 5 L8: K 1.12 | C 1.27 | Q 1.11 | S 0.903 | A 1.07 | W 0.814 | E 1.53 | N 0.915 | T 0.915 | G 0.683 | R 1.34 | V 0.51 | F 1.03 | M 0.831 | Y 0.356 | H 0.966 | I 0.769 | P 1.39 | D 0.849
chain 5 K7: S 1.39 | Y 0.995 | W 1 | V 1.37 | T 1.22

Variants of: B2
Test: % of reporter cells activated (NFAT-GFP), raw
Settings: with B2; scale: % of reporter cells activated

Ratio to parent, by site and new letter:
chain 5 K7: R 1.97 | E 1.49 | Q 1.96 | H 4.08 | I 1.95 | G 7.31 | N 1.84 | S 3.71 | W 7.51 | V 12.4 | Y 2.46 | L 2.05 | F 4.64 | A 4.46 | D 3.15 | T 1.99 | M 2.53 | C 2.46 | P 3.7
chain 5 I3: S 0.4 | Y 0.476 | W 0.578 | R 0.335 | Q 0.524 | A 0.741 | V 0.449 | D 0.481 | G 0.568 | N 0.389 | K 0.427 | L 0.724 | C 0.795 | E 0.432 | M 0.659 | P 0.692 | F 0.324 | H 0.676 | T 0.4
chain 5 F5: H 12.1 | D 1.06 | G 0.438 | E 0.573 | K 0.741 | N 1.95 | I 1.82 | R 0.476 | V 0.346 | P 0.703 | Q 1.75 | Y 7.49 | S 0.73 | W 0.519 | A 1.27 | T 0.632 | C 3.54 | M 1.38 | L 3.33
chain 5 E6: C 0.811 | S 0.751 | W 0.6 | A 0.557 | Y 0.697 | R 0.573 | D 0.6 | Q 0.724 | V 0.422 | N 0.535 | I 0.67 | G 1.06 | T 0.746 | P 0.741 | K 1.8 | H 0.497 | F 0.584 | M 0.946 | L 0.53
chain 5 I2: G 0.876 | R 1.36 | C 1.2 | F 2.06 | M 2.66 | T 1.68 | H 0.93 | N 0.589 | V 1.91 | E 0.654 | P 0.892 | L 4.69 | W 0.768 | Y 0.87 | A 1.58 | D 1 | Q 0.573 | K 1.18 | S 0.714
chain 5 L8: K 1.17 | D 0.914 | I 0.708 | A 8.62 | M 3.42 | H 2.32 | E 0.551 | G 0.849 | C 2.06 | F 8.42
